# In a protein production outcome set (Wang et al. 2014):
# Assay: label from the status in PepcDB records
row,Sequence,protein production
1,MPHAVQGQPENAVHPPQGTAWPGLEPPEGFLMANPRLSRRHVRRMRSERPPPTTRPPDWRFPMKSTLNLLLTVSLALSGAGLAQTAPNVPTQAAPTTAAPANAAQLAAEARDLTNRARTTYPAGSASIDQPLWKQAADRAEAAVSAAPNNPDVLRLRAQIYTEVGFWKQAESSWRAYFAVAPVAAGQNEARAAGNVQYNLGYAAYTRGQSAQAAAYFKACLTLDPQSVPCATWAARTALESGDYALAQNLYTQALSLAPTDKTLNYFAQVARNASTYGPAATQAFSRAYASLDAGRRAEALAGFQEAARSAPNFPEAQREAGRLALEAGDTGAALSAYQALAALPGATDSDRYNLGLAQEGQQYGLRAVQTFRTAYGKYSAGDKAGAEAGFLQATTASANYGKAWAWLGRVRYEAKNYAGAAEAYGRAVALDPGDKTSAYFLKLAQQGK,failed
2,MAGESGAPIRCRLLPIDMDAALGPPEQMAELEEDLTPMMAQYYELCRQYDDALVLFQVGDFYEAFCAAAKRVARLCEITLTQREDSTGEYPMAGIPIDNAESYVETLLDAGYRVAIADQVEDPDEVSGVVERAVTRIVTPGTLTESELLGGADNNYVAALTAGERYGLALLDISTGDCYATSVGSESAVADELSRFGPAEAIVGPDVDVDRDAVFGPACLVTRYDADAFAQDRAEDRVGQYFGPPERLLAGGAEIRACGGLLAYAEYTRGSSGAVGPDGEPVDPDVDPAGTLDYLNHLTRYDPREYMLLDAVAVESLELFKRRSVRGHENRTLVDTVDETACALGRRKLTDWLRRPLLDADRIEARHGAVAELQRDPATREELSALLAEVYDLERLISRVSRGRANARDLRSLAATLSVVPDIRDHLADADARLLADLHATLDPLAETREEIEAAIRPDPPQQVTEGGVIREGYDEELDRLRSTEQSGKEWIDELEASERERTGIDSLKVGHTSVHGYYIEVTNANLDAVPEDYQRRQTLKNSERYYTPALKEREDEILRAESAADDLEYDLFCAVRDEVADEAERVQALADRLARLDVLVSFAEVAAQYDYCRPTVGSDGIDVTAGRHPVVERTEDAFIPNDTHLGSGPVPASRDGSDDGVTADDIQPFLAVVTGPNMSGKSTYMRQVALICLLAQSGSFVPAKAADLPILDRVFTRVGASDDIAGGRSTFMIEMTELATILDAATENSLVLLDEVGRGTSTADGLAIARAVTEYLHDEVGAYTLFATHHHDLTAVAAALSGATNRHFETSREDGDVRFDHELAPGPAAASYGVEVASMAGVPDSVVERSRDLLADAETADTGVEATRETEVASEPRPGTRADSETDSTATETTGPTENGAASAPAGEATSDDHAQEVFQTNGAAAEDELPESVAQQLASLDVATMTPIEAMNALADLQDRIE,failed
3,MKPVKVGICGLGTVGGGTFNVLQRNAEEIARRAGRGIEVAQIAVRTPNPNCQIGSTPTTSDVFAVATNPEIDIVVELIGGYTLARELVLKAIENGKHVVTANKALIAVHGNEIFAKAREKGVIVAFEAAVAGGIPVIKAIREGLSANRINWVAGIINGTGNFILTEMREKGRTFPDVLAEAQALGYAEVDPTFDVEGIDAAHKLTILASIAFGIPLQFDKAYTEGITKLTTADVNYAEALGYRIKHLGVARSTAQGIELRVHPTLIPADRLIANVNGVMNAVMVNGDASGSTLFYGAGAGMEPTASSVVADLVDVVRAMTSDPENRVPHLAFQPDSLSAHPILPIEACESAYYLRIQAKDHPGVLAQVASILSERGINIESIMQKEVEEHDGLVPMILLTHRVVEQRINDAIQALEALQDVVGPVVRIRVEHLN,not failed
4,MTVQSGELRPNLIALKTIVYREVHRFMRIWPQTLLPPAITMVLYFVIFGNLIGRQIGDMGSFTYMQYIVPGLIMMSVITNSYGNVVSSFFGAKFQHSIEELMVSPVSPHTILIGYTLGGVLRGLMVGFIVTMLSMFFTDLQVHHLGVTIVVVVLTATIFSLLGFINAVFARNFDDISIIPTFVLTPLTYLGGVFYSINLLPPFWQTVSLANPVLHMVNAFRYGILGVSDIKISIALAFMIVATFVLYFGCARLLVSGRGMRQ,failed
5,SFRTTKEEVVEKAKAFISAHYTEELNLSVIASQLYVNPFYLRRIFKEETELSPSQYLLKKRIEAALALLVNQEETITDIAFKVGFKSPAHFSTVFRHMIGLPPQKYRES,failed
6,MYESANVSDDADRTAFRRAEKKYKLYYEQDSKFSRKKKLPKPIDLSELLDFNLISQNFNNDGVLPDGIRVSKVDSSPVFCIDNRPGFYFIPDALSLKEQCKWIKESLTSFPQPPNRTNHNAIYGPIDDLFDSAKENKVLVQDDLTNNKWKFYEEVDIEKATRSSCKSVSASVLLRKLRWSTLGLQFDWSKRNYDVSLPHNNIPDALCQLAKTHAAIAMPDGEEFRPEGAIVNYFGIGDTLGGHLDDMEADWSKPIVSMSLGCKAIFLLGGKSKDDPPHAMYLRSGDVVLMAGEARECFHGIPRIFTGEENADIGALESELSHESGHFFAEYIKTSRININIRQVF,not failed
7,MDSVTLACGNGGKETNALIERVFMPYLKEWIVAFDEDAPKFEASGEYCVSTDSFVITPLIFNGGDIGKLCVCGSANDVSVQGGEPLYLNMGFILEEGLEISLLKQILQSIQKELFKANLKLLSLDTKVVPKGSVDKLFINTTCIGKIIKPGISSYHLQQGQAIILSDTIANHGASLFAMRNEIKLKTNLESDCQLLYPLLKPLFLSDLKIDALRDATRGGLASVLNEWANSSRVKIVIEEEKIPLKEETKGICEILGLEPYALANEGVFVLALNQKDAPKALEILKSNEKAKNACVIGKVFENPYPSVVLKNAWGFERILEVPEGELLPRIC,failed
8,MLSIEVTVFAAIAYLTILFSIAYRGDRGASNRVRPYRYSLAQGVHCTSWAFFGTITQSAYYGWAFAPTYVGAIIVFILLHSLQLKLLNYCKHQNITSIADLIGTRYGKSPVLAGVVAITAFIAVVPYISLQLRAVTSSFATVTGFDTNPSWIFDLSFLVALTMIGFGFLFGTRRLSLAEQHSGLMDAIAFESLVKLAAFIIVGLFASYTVFDGLADLFQKSFETQHTQDVLAGREYGGYVFAVHMLLGGLSMFSLPRQFHVGYVENTHSDELKTARWAFPLYLFAINFFILPLSLSALHLAPELANQDTFMLVIPLMMDRPDITLIAFIGGLSAATSMVIIALLALSIMVSNDVVMPIWLRMTRQKLRQFSFTPTRILSIRRMTMVVVMFMAYLYYQATIESMPLVNSGLLSLALLTQLTPAILATVLWRSATQTGVLVGLVVGTALWVILLLVPSIGLQPQVTDIDIANGVLISLGANLICFWLFSLISKNVQTDLQSIQSSDDYEQQPSLTWARLRSLLSRFYDDRQLAAIQRRLRMDLLTPEGQSMVPAPMLVRIERELSAVIGTSASRLLLDTVSEQQEFPVSRVVDWATEASKLYQFNRELLQASVENIPQGISVVDQKLRLVAWNRRYLEIFDYPDGLVRAGMPVEELLRYNARRGLLSNSQNTDVEAEIQKRLNFLRTGSTYHYQRQQGELTVELQGSPMPGGGFVTTYSDITERVEAQRQLQKINQELEERVDERTQQLLSAKEAEEKAHESKSRFFAAVSHDLMQPFNAASLFCEMLQSRLPNEYLPLAVNIQRSLDHAEELLTMLLDMTKLDAGNLKPDYQEFSIDQALLPLVERYQAMAKEKQLRFHYHKSSALVKTDRKLLNRIIQNLLSNALRYTQHGRIVLGFRRHQQHLTICIIDTGSGIPEHKQTEIFREFHQLQSSGDNPGLGLGLSIVERMCRLLRIDLSLSSTLDKGTAFSLTLPVIGWQKEPQPVVIKNDSVDEKLLKDMRVLVIDNDPGVLKATAGLLTDWGAETMTASSFDQARKHPPCDLILADYHLDNGNTGIELVVSIRKLWNSNTPAIINSADPDELLREQALEANAYFIPKPLKSGALKRLLKRIRRI,failed
9,MLVNFIKNFIPHRFYSSKTEIPVVRLHGAIIDSSSSIARTLSLGRCANLLDKAFAYKKAPAVAVIINSPGGSPVQSRLIFKRIRDLAEEKKKQVLMFIEDIAASGGYMIACAGDEIFADPSSIVGSIGVVSASFGFPELLKKIGIERRVYTAGKNKVTLDPFQPEKKTDIEHLKSLQLEVHKTFIDLVKERRAEKLSNDPNIFTGMFWSGKKSVELGLIDGLNDVRSVIKERFGDDTKLRLIIPPKSLFGPKTPSGVTAHAVHTAIDSALMVAQERALWQYYGLLEHHHHHH,not failed
10,MKHIHIIGIGGTFMGGLAAIAKEAGFEVSGCDAKMYPPMSTQLEALGIDVYEGFDAAQLDEFKADVYVIGNVAKRGMDVVEAILNLGLPYISGPQWLSENVLHHHWVLGVAGTHGKTTTASMLAWVLEYAGLAPGFLIGGVPENFGVSARLPQTPRQDPNSQSPFFVIEADEYDTAFFDKRSKFVHYRPRTAVLNNLEFDHADIFADLGAIQTQFHYLVRTVPSEGLIVCNGRQQSLQDTLDKGCWTPVEKFGTEHGWQAGEANADGSFDVLLDGKTAGRVKWDLMGRHNRMNALAVIAAARHVGVDIQTACEALGAFKNVKRRMEIKGTANGITVYDDFAHHPTAIETTIQGLRQRVGGARILAVLEPRSNTMKLGTMKSALPVSLKEADQVFCYAGGVDWDVAEALAPLGGRLNVGKDFDAFVAEIVKNAEVGDHILVMSNGGFGGIHGKLLEALR,not failed
11,SIPMRLLSDCPQFSRKTVKLLTNGGDMLELCYELRLPFVHWISVNQKSSFKRYEISHVYRRAIGHSPPNPCLQADFDIVGGTLSLTEAEVLKVIVDITTHIFHRGSCDIHLNHGDLLDAIWSWAGIKAEHRRKVAELLSMMGSLRPQSSERKLKWVFIRRQLLQELKLPEAVVNRLQTVASRFCGDADQALPRLRGALRADRPTRKALDELSNLLTYLRVWRIEEHVHIDVLMPPTESYHRNLFFQVFLTKENSSGTSNDGVLLAVGGRYDWLVQEVCDREHKMNLPGAVGVSLALETIFQHLPMDLRPIRNEVSTSVLVCSRGGGGLLVQRMELVAELWEKSIKAEFVPTPDPSLTEQYEYANEHEIKCLVIITESGVAQNQIEFVKVRHLELKKEKVVGR,not failed
12,MKGILFAVFAGIFITLQGTFNAKLSSHIGIWSTSIITHLIGFIIATTVFLLKKEEKVTDLKSVKKIYLVAGAFGGFIICAETMAIYSLGVTLTAGTLMAAQLLTATVIEMKGLFHIKKIQMERYHIVGTIVMIIGIVVFNM,failed
13,MCDQTKHSKCCPAKGNQCCPPQQNQCCQSKGNQCCPPKQNQCCQPKGSQCCPPKHNHCCQPKPPCCIQARCCGLETKPEVSPLNMESEPNSPQTQDKGCQTQQQPHSPQNESRPSK,failed
14,MDMYSMKISEGVERIDGVTANSYLLTLDGKNILIDTGTAGGGKKIIDYFNKNGTKPDYVIVTHHHADHVGGLKEISERFNPEIYVPDLEMKIIRGEEDPPKPRSFFGRMITGMLKFEPVKDVKPVSKASIPGIEEMATPGHTIGSTSYIVEDLHILFSGDAAVESGGELKINKSFSYEINSAERSLEIIKGMKGYLVLPGHGDKVQLLEHHHHHH,not failed
15,MDLLEYQVKEWFGEIGIPVLPSQRIDHPTDLKRLKIRYPIVLKSQVHAGEREKVGGVRMVETTIDAIAAAQTIFNLSIWGELPEVLLAESKYNSHQEFYLAVVLDTAVCRPVLLGSTEADIDLELADQKMQYVVVEQEFSPFYARRLALKMGLQGTLMQSVSTVLEKMYQLFVQKDLDLVEINPLGVNLAGEVMALNGKVGVNERAIGRHPEIAAMAAKIIPRHYDKSFSNGRDWNNLEKQRRIGILGNGTGSILATYDLVASGGGKPGICLNLRHAAITDLSPTKFGDRLTKGLNTLAADKNTQVILINLLGSIPQPEEAAQAIAQFIQQNKGEYPPSIAKSNGKNLSQHQSPQLVIRLAGSELNAAKEVLAALQTHEEGLILVEDLDEAVATAVRLTKSHAYKKVS,failed
16,MYKATVIIKLKKGVLNPEGRTIQRALNFLGFNNVKEVQTYKMIDIIMEGENEEKVKEEVEEMCKKLLANPVIHDYEIKVEKIE,not failed
